Measured values as given in the RNAGym collection of RNA variant scans (doi:10.1073/pnas.2313332121).
Fewer inactive variants are shown than the library holds.

B1: TPR 5TU (parent)
chain: GGAUCUUCUCGAUCUAACAAAAAAGACAAAUCUGCCACAAAGCUUGAGAGCAUCUUCGGAUGCAGAGGCGGCAGCCUUCGGUGGCGCGAUAGCGCCAACGUUCUCAACUAUGACACGCAAAACGCGUGCUCCGUUGAAUGGAGUUUAUCAUG

Variants of: B1
Test: polymerase ribozyme fitness, log enrichment relative to wild type (log ratio); higher = more active; in vitro selection for triplet polymerase activity
Summary of the method: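 Streptavidin-bead capture of gel-excised extended constructs, followed by RT-PCR, closed a single triplicate in vitro selection round. That round began by annealing PCR-built, transcribed mutant libraries of each subunit of a heterodimeric triplet polymerase ribozyme with a biotinylated primer, the partner subunit and triplets, then incubating them frozen at −7 °C. After Illumina sequencing of inputs and outputs, genotypes needed ≥10 input reads and ≥1 read per output. Fitness is the base-2 logarithm of genotype enrichment over wild-type enrichment, using inverse-variance-weighted replicate averages.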

Variant	polymerase ribozyme fitness (log ratio)
C14A A49C G59C G62A A91U G100A C114U A137G U146C	≤ -4.2
C14A U55G C63G C93U C118U	≤ -4.2
C14G A17C A22U U44A G83C C118A U134C	≤ -4.2
A12U A23G C87U A150C	≤ -4.2
U13C C14G G88A	-4
C14G C32A U61G A120C	≤ -4.2
U13G G42C A49U G65A G71A G92A	-3.74
U13G C32A C93A U127G	≤ -4.2
A12U C57U	-0.208
U13G A52G G59C C95A C118U	-2.5
U13G A47U G50A C51U U55A G81C A137U C149A	≤ -4.2
C14G U15C C76A C85G	-3.78
A12U U55C A137C	-4.12
A12G U33A A39C G65A G70C C96G A119U C129A U135G	≤ -4.2
C14G A30U C36A U55A A73C C85U A119G	≤ -4.2
C14A G59U G94U C125G U134A U151G	≤ -4.2
C14A A37U G84A C125U	-3.95
C14G G34U A41C U77G G83U A115G U135G	≤ -4.2
U13A A49C G50C C51U G62C C76A G81A C85U G112A G124U	≤ -4.2
C14G U44G U53A C75A U90C C93U	≤ -4.2
C14G A28U A29C C32G U44G C63U G83A G86C C105U C108U G143U	≤ -4.2

Variant	polymerase ribozyme fitness (log ratio)
A12U C14A C114G A119G	-3.37
U13C C27A C43A G86U	≤ -4.2
C14A A20G C79A G94C G141A	≤ -4.2
C14A A21C A64G C75U C76G C85U C105U A120U	≤ -4.2
A12G C14U C79G C132A A142U	≤ -4.2
C14A G50A C87A A106U C108G A150C	≤ -4.2
C14G C54U C72U	-3.4
U13G C14G C18U A22C C57U G59A C75A C93A G143U U146A G152U	≤ -4.2
C14G A47C A60U G65A	≤ -4.2
A12U A24G A49C C57U A73G G86U	≤ -4.2
A12G A20G A26U A41C C54U U77C U102C U146G	≤ -4.2
A12U A24U G81U G84A	0.337
C14G A30G A52C C72A C95G C103G	≤ -4.2
A12U A17U C18U G46U C51U A52U C75A G84C G100U C105U C118G A120U U134A A137G	≤ -4.2
A12U U55A	-0.315
A12G A52C G59A	-1.78
U13G A23C C32U G59U C85G C105G A106U C116G U134A	≤ -4.2
U13C C51U G59C G92U A115G G143C	-3.61
U13A A47U G86U C132U G140A	-3.17
U13C C43A A73C G92U	≤ -4.2
A12G A22C U101G U127C	-1.93

Variant	polymerase ribozyme fitness (log ratio)
A12U A49U A52C G67A C72A C85A G86C A119U	≤ -4.2
A12U U56A C93U	-1.4
U13C A16G A19C U56A G136U U145G	-3.34
U13C A121U A142C	-2.44
A12U A28G U55A C63U C96G G100A	≤ -4.2
U13G C18G C27U A40U A64U	≤ -4.2
A12U C14A G58C C85A	-3.13
U13A A37U C96U G126U	-2.85
U13G A60U G83C C108U	≤ -4.2
C14A C105U	-0.869
U13G A19U C51U A97U	-2.04
U13G A47G G48A A89C C93U C99G	≤ -4.2
A12U A21C A52C C85U	-1.19
A12G A37C G86A C95A	≤ -4.2
U13G A23U A37C G83A C96U	≤ -4.2
A12U C36U U61G G67A U82G A106G A138U	-4.08
C14A A20U A26C G84A G141A	≤ -4.2
A12G G143U	-2.62
C14A G141C	-1.87
C14A G141U	-0.0158
C14A C32U C85U A98U U111G U139G U151A	-4.14

Variant	polymerase ribozyme fitness (log ratio)
U13G U53A C85A C95U A98U G141C	≤ -4.2
A12U G58C C95A	-1.44
U13G A28U A37C A41G C99U C129A U134C A150C	≤ -4.2
U13A A37C C57A G126U	-1.66
C14G G50U U56G G59C C108U	≤ -4.2
A12G C38U C57G G62A C93A	-2.77
U13A A22C G50A G84A A121U	-2.93
C14A A17U A115G	-3.2
C14G G34A G128A G141C	-3.91
A12U A37C U45A U55A C85U G92A	≤ -4.2
C14G A23U A41U U78C G80C G81U C96U A110U G143U	≤ -4.2
U13G C18U C27U C95U	-3.43
A12U C38A G59U C87A A97U	≤ -4.2
A12G A24G A37C C87G A120G U139G	-4.13
A12U A29C C87A G94U	≤ -4.2
U13G G84U U135A G136A	-2.14
A12G U144A	1.44
C14A G25U U82G G94U	≤ -4.2
U13C U55A C85A C125U	-1.98
C14A A26U U77G G84U A115C A147G U148G	≤ -4.2
